The text below walks through data of paper PMC5963807, “Assembly-hub function of ER-localized SNARE proteins in biogenesis of tombusvirus replication compartment” (PLoS Pathogens, 2018).

The chains are these.
B1: His6-Osh6p (natural protein, yeast (S. cerevisiae), UniProt Q02201 1-448, looked up)
chain: MGSKKLTVGSDSHRLSKSSFSSNKSSHSATKDQPIDTDDIDEDDESGHNIILNIISQLRPGCDLTRITLPTFILEKKSMLERVTNQLQFPEFLLQAHSEKDPLKRFLYVMKWYLAGWHIAPKAVKKPLNPVLGEYFTAYWDLPNKQQAYYISEQTSHHPPECAYFYMIPESSIRVDGVVIPKSRFLGNSSAAMMDGSTVLQFLDIKDGNGKPEKYVLTQPNVYVRGILFGKMRIELGDHMIIKSPNFQADIEFKTKGYVFGTYDAIEGTVKDYDGNAYYEISGKWNDVMYLKDLKQPRSSPKVFLDTHKESPLRPKVRPLSEQGEYESRKLWKKVTDALAVRNHPVATEEKFQIEDHQRQLAKKRIEDGVEFHPKLFRRSKPGEDLDYCIYKNIPVDEDPEKQIRSILQIAPILPGQQFTDKFFIPAFEKIKSQKKMIENEKQNPAKQ
notes: also called 6xHis-tagged Osh6; Osh6 ORP (OSBP1-like); source: yeast, co-expressed, detergent-solubilized membrane fraction; not shown: His6, N-terminal, kept
B2: His6-VAP27-1 (natural protein, UniProt Q8VZ95 1-256, looked up)
chain: MSNIDLIGMSNRDLIGMSNSELLTVEPLDLQFPFELKKQISCSLYLTNKTDNNVAFKVKTTNPKKYCVRPNTGVVLPRSTCEVLVTMQAQKEAPSDMQCKDKFLLQGVIASPGVTAKEVTPEMFSKEAGHRVEETKLRVTYVAPPRPPSPVHEGSEEGSSPRASVSDNGHGSEFSFERFIVDNKAGHQENTSEARALITKLTEEKQSAIQLNNRLQRELDQLRRESKKSQSGGIPFMYVLLVGLIGLILGYIMKRT
notes: VAP27-1, plant ortholog of the yeast Scs2 VAP protein; also called 6xHis-tagged VAP27-1 (Scs2 ortholog); Vap27-1 (Scs2-like); source: yeast, co-expressed, detergent-solubilized membrane fraction; not shown: His6, N-terminal, kept
B3: Cdc34 E2 enzyme (enzyme, yeast (S. cerevisiae), UniProt P14682 1-295, looked up)
chain: MSSRKSTASSLLLRQYRELTDPKKAIPSFHIELEDDSNIFTWNIGVMVLNEDSIYHGGFFKAQMRFPEDFPFSPPQFRFTPAIYHPNVYRDGRLCISILHQSGDPMTDEPDAETWSPVQTVESVLISIVSLLEDPNINSPANVDAAVDYRKNPEQYKQRVKMEVERSKQDIPKGFIMPTSESAYISQSKLDEPESNKDMADNFWYDSDLDDDENGSVILQDDDYDDGNNHIPFEDDDVYNYNDNDDDDERIEFEDDDDDDDDSIDNDSVMDRKQPHKAEDESEDVEDVERVSKKI
notes: Cdc34 ubiquitin-conjugating enzyme of yeast; also called Cdc34 ubiquitin-conjugating enzyme; source: yeast, detergent-solubilized membrane fraction
B4: eIF4AIII-like RH2 DEAD-box helicase (enzyme, UniProt Q94A52 1-408, looked up)
chain: MATANPGRGGGRRGGGAMDDDKLVFETTDGIEPITSFNDMGIKEDVLRGVYEYGFEKPSAIQQRAVMPILQGRDVIAQAQSGTGKTSMIALSVCQVVDTSSREVQALILSPTRELATQTEKTIQAIGLHANIQAHACIGGNSVGEDIRKLEHGVHVVSGTPGRVCDMIKRRSLRTRAIKLLILDESDEMLSRGFKDQIYDVYRYLPPDLQVCLVSATLPHEILEMTSKFMTEPVKILVKRDELTLEGIKQFFVAVEKEEWKFDTLCDLYDTLTITQAVIFCNTKRKVDYLSEKMRSHNFTVSSMHGDMPQKERDAIMNEFRSGDSRVLITTDVWARGIDVQQVSLVINYDLPNNRELYIHRIGRSGRFGRKGVAINFVKSDDIKILRDIEQYYSTQIDEMPMNVADLI
notes: eIF4AIII-like RH2 DEAD-box helicase; source: yeast, detergent-solubilized membrane fraction
B5: Pex19p shuttle protein (natural protein, yeast (S. cerevisiae), UniProt Q07418 1-342, looked up)
chain: MNENEYDNFDDLDDLLDEDPTKLDEAEPDDVQAKGSVYNDSENKEKNAESKDSDGVQVANESEEDPELKEMMVDLQNEFANLMKNNGNENNVKTEDFNKLISALEEAAKVPHQQMEQGCSSLKSNSTDKGTVNGSNPGFKNIVSNTLDRLKENGNKVDTSLAEETKESQRSGQNNNIDDILSQLLDQMVASGGKESAENQFDLKDGEMDDAITKILDQMTSKEVLYEPMKEMRSEFGVWFQENGENEEHKEKIGTYKRQFNIVDEIVNIYELKDYDELKHKDRVTELLDELEQLGDSPIRSANSPLKHGNEEEELMKMLEIDGNDPNLGNLDKELTDGCKQQ
notes: Pex19p peroxisome membrane-biogenesis protein of yeast; source: yeast, detergent-solubilized membrane fraction
B6: Tdh2p (GAPDH) (enzyme, yeast (S. cerevisiae), UniProt P00358 1-332, looked up)
chain: MVRVAINGFGRIGRLVMRIALQRKNVEVVALNDPFISNDYSAYMFKYDSTHGRYAGEVSHDDKHIIVDGHKIATFQERDPANLPWASLNIDIAIDSTGVFKELDTAQKHIDAGAKKVVITAPSSTAPMFVMGVNEEKYTSDLKIVSNASCTTNCLAPLAKVINDAFGIEEGLMTTVHSMTATQKTVDGPSHKDWRGGRTASGNIIPSSTGAAKAVGKVLPELQGKLTGMAFRVPTVDVSVVDLTVKLNKETTYDEIKKVVKAAAEGKLKGVLGYTEDAVVSSDFLGDSNSSIFDAAAGIQLSPKFVKLVSWYDNEYGYSTRVVDLVEHVAKA
notes: Tdh2p glyceraldehyde-3-phosphate dehydrogenase of yeast; also called Tdh2 GAPDH; source: yeast, detergent-solubilized membrane fraction
B7: Tef1 eEF1A translation elongation factor (natural protein, yeast (S. cerevisiae), UniProt P02994 1-458, looked up)
chain: MGKEKSHINVVVIGHVDSGKSTTTGHLIYKCGGIDKRTIEKFEKEAAELGKGSFKYAWVLDKLKAERERGITIDIALWKFETPKYQVTVIDAPGHRDFIKNMITGTSQADCAILIIAGGVGEFEAGISKDGQTREHALLAFTLGVRQLIVAVNKMDSVKWDESRFQEIVKETSNFIKKVGYNPKTVPFVPISGWNGDNMIEATTNAPWYKGWEKETKAGVVKGKTLLEAIDAIEQPSRPTDKPLRLPLQDVYKIGGIGTVPVGRVETGVIKPGMVVTFAPAGVTTEVKSVEMHHEQLEQGVPGDNVGFNVKNVSVKEIRRGNVCGDAKNDPPKGCASFNATVIVLNHPGQISAGYSPVLDCHTAHIACRFDELLEKNDRRSGKKLEDHPKFLKSGDAALVKFVPSKPMCVEAFSEYPPLGRFAVRDMRQTVAVGVIKSVDKTEKAAKVTKAAQKAAKK
notes: Tef1 eEF1A translation elongation factor of yeast; source: yeast, detergent-solubilized membrane fraction
B8: Vps4p AAA+ ATPase (enzyme, yeast (S. cerevisiae), UniProt P52917 1-437, looked up)
chain: MSTGDFLTKGIELVQKAIDLDTATQYEEAYTAYYNGLDYLMLALKYEKNPKSKDLIRAKFTEYLNRAEQLKKHLESEEANAAKKSPSAGSGSNGGNKKISQEEGEDNGGEDNKKLRGALSSAILSEKPNVKWEDVAGLEGAKEALKEAVILPVKFPHLFKGNRKPTSGILLYGPPGTGKSYLAKAVATEANSTFFSVSSSDLVSKWMGESEKLVKQLFAMARENKPSIIFIDEVDALTGTRGEGESEASRRIKTELLVQMNGVGNDSQGVLVLGATNIPWQLDSAIRRRFERRIYIPLPDLAARTTMFEINVGDTPCVLTKEDYRTLGAMTEGYSGSDIAVVVKDALMQPIRKIQSATHFKDVSTEDDETRKLTPCSPGDDGAIEMSWTDIEADELKEPDLTIKDFLKAIKSTRPTVNEDDLLKQEQFTRDFGQEGN
notes: Vps4p AAA+ ATPase (an ESCRT protein) of yeast; also called Vps4 AAA ATPase; source: yeast, detergent-solubilized membrane fraction
B9: Pbp2 RNA binding protein (natural protein, UniProt P38151 1-413, looked up)
chain: MSTETTKPSITTTPTTVLVSPNTLKRKKGEDTSEEQLEAEIKRVALKDADSHSDNDHDSPDNVPSDVHLRMLCLVKHASLIVGHKGATISRIKSETSARINISNNIRGVPERIVYVRGTCDDVAKAYGMIVRALLEEHGNEDNGEDIEISINLLIPHHLMGCIIGKRGSRLREIEDLSAAKLFASPNQLLLSNDRILTINGVPDAIHIATFYISQTLLNFQMESPQKNVKRSIYYQPTQFNSVLIDHSQPNTIFHQRNHQYHPSDKLLSYKPNKNLPISSTLLSMATPQYTTASVANATAFQPNFVIPNVTVLDGPVISPAPGNHLLMNFVQQEIFIDEKFVGNVIGKDGKHINSVKESTGCSIIIQDPVEGSSERRLTIRGTFMASQAAIMLISNKIEIDRSNAERKRRSPL
notes: source: yeast, detergent-solubilized membrane fraction
B10: Vps23p ESCRT factor (natural protein, yeast (S. cerevisiae), UniProt P25604 1-385, looked up)
chain: MSANGKISVPEAVVNWLFKVIQPIYNDGRTTFHDSLALLDNFHSLRPRTRVFTHSDGTPQLLLSIYGTISTGEDGSSPHSIPVIMWVPSMYPVKPPFISINLENFDMNTISSSLPIQEYIDSNGWIALPILHCWDPAAMNLIMVVQELMSLLHEPPQDQAPSLPPKPNTQLQQEQNTPPLPPKPKSPHLKPPLPPPPPPQPASNALDLMDMDNTDISPTNHHEMLQNLQTVVNELYREDVDYVADKILTRQTVMQESIARFHEIIAIDKNHLRAVEQAIEQTMHSLNAQIDVLTANRAKVQQFSSTSHVDDEDVNSIAVAKTDGLNQLYNLVAQDYALTDTIECLSRMLHRGTIPLDTFVKQGRELARQQFLVRWHIQRITSPLS
notes: Vps23p ESCRT-I factor of yeast; also called Vps23 ESCRT I; source: yeast, detergent-solubilized membrane fraction
B11: Rpn11 deubiquitinase (enzyme, yeast (S. cerevisiae), UniProt P43588 1-306, looked up)
chain: MERLQRLMMNSKVGSADTGRDDTKETVYISSIALLKMLKHGRAGVPMEVMGLMLGEFVDDYTVNVVDVFAMPQSGTGVSVEAVDDVFQAKMMDMLKQTGRDQMVVGWYHSHPGFGCWLSSVDVNTQKSFEQLNSRAVAVVVDPIQSVKGKVVIDAFRLIDTGALINNLEPRQTTSNTGLLNKANIQALIHGLNRHYYSLNIDYHKTAKETKMLMNLHKEQWQSGLKMYDYEEKEESNLAATKSMVKIAEQYSKRIEEEKELTEEELKTRYVGRQDPKKHLSETADETLENNIVSVLTAGVNSVAIK
notes: Rpn11 deubiquitinase, co-opted cellular host factor in yeast; source: yeast, detergent-solubilized membrane fraction

One series deals with T1, FLAG/His6-p33 (Tomato bushy stunt virus, UniProt P15962 1-296).
T1 construct: p33 replication protein of Tomato bushy stunt virus (TBSV); also called FLAG-p33; FLAG-tagged p33; source: yeast, co-expressed, detergent-solubilized membrane fraction; not shown: FLAG, N-terminal, kept; His6, N-terminal, kept
T1 sequence: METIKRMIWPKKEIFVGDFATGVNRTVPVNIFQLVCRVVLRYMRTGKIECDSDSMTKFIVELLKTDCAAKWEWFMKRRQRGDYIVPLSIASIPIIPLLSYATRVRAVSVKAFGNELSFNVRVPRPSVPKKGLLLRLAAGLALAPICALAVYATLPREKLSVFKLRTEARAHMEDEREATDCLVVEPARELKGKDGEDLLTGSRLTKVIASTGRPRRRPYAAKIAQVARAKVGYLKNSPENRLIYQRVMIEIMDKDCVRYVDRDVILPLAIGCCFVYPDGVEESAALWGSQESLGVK
The series is described as follows: co-IP; FLAG-p33 purified from detergent-solubilized membrane fractions of wt yeast and of yeast co-expressing Ufe1ΔTM; co-purified cellular proteins measured by Western blotting; amount from WT yeast taken as 100%. The conditions noted are these: partners not purified. On the technique in general: In western blotting, separated proteins are transferred to a membrane and probed.
For the molecule B1, the “fold reduction of the co-purified amount in yeast expressing Ufe1ΔTM against wt yeast” value is around 3 fold.

The target of a further series is T1, FLAG/His6-p33. Described as above. The conditions noted are these: partners not purified. The source holds these as a separate data set.
With B1, the “percentage of host protein co-purified with p33 from yeast expressing Ufe1ΔTM (WT yeast = 100%)” value was determined as 59 ± 24%.

Regarding B2, the “percentage of host protein co-purified with p33 from yeast expressing Ufe1ΔTM (WT yeast = 100%)” value is 68 ± 30%.

In the case of B3, the “percentage of host protein co-purified with p33 from yeast expressing Ufe1ΔTM (WT yeast = 100%)” value was 109 ± 14%.

Turning to B4, the “percentage of host protein co-purified with p33 from yeast expressing Ufe1ΔTM (WT yeast = 100%)” value was 70 ± 18%.

In the case of B5, the “percentage of host protein co-purified with p33 from yeast expressing Ufe1ΔTM (WT yeast = 100%)” value was found to be 56 ± 13%.

For B6, the “percentage of host protein co-purified with p33 from yeast expressing Ufe1ΔTM (WT yeast = 100%)” value is 64 ± 17%.

Regarding B7, the “percentage of host protein co-purified with p33 from yeast expressing Ufe1ΔTM (WT yeast = 100%)” value was determined as 67 ± 25%.

In the case of B8, the “percentage of host protein co-purified with p33 from yeast expressing Ufe1ΔTM (WT yeast = 100%)” value was 44 ± 27%.

Take B9: the “percentage of host protein co-purified with p33 from yeast expressing Ufe1ΔTM (WT yeast = 100%)” value came out at 122 ± 15%.

For the molecule B10, the “percentage of host protein co-purified with p33 from yeast expressing Ufe1ΔTM (WT yeast = 100%)” value stood at 106 ± 7%.

Turning to B11, the “percentage of host protein co-purified with p33 from yeast expressing Ufe1ΔTM (WT yeast = 100%)” value was determined as 103 ± 6%.

The next series deals with T1, FLAG/His6-p33. As to the kind of experiment: co-IP; viral replicase purified by FLAG affinity from detergent-solubilized membrane fractions of yeasts expressing FLAG-p33, FLAG-p92 and the repRNA; WT yeast or yeast depleted of Ufe1p (GALS::UFE1) or Use1p (GAL1::USE1) on glucose; Western blot with anti-6xHis. Conditions: partners not purified.
As for B1, the “fold reduction of the co-purified amount in Ufe1p- or Use1p-depleted yeast against WT yeast” value is around 7 fold.

For the molecule B2, the “fold reduction of the co-purified amount in Ufe1p- or Use1p-depleted yeast against WT yeast” value was around 5 fold.
